Results published in the Human Domainome abundance scans (Beltran et al. 2025).
± gives the uncertainty stated by the source.

B1: Transcriptional regulator ERG, residues 117 to 197; numbered along this chain, P11308 (parent)
chain: NMTTNERRVIVPADPTLWSTDHVRQWLEWAVKEYGLPDVNILLFQNIDGKELCKMTKDDFQRLTPSYNADILLSHLHYLRE

Variants of: B1
Assay: abundance fitness (aPCA) (normalised: wild type 0, dead -1); higher = more abundant; growth selection in yeast, the domain comes from the species named
Conditions: Homo sapiens
Work on W18Q yielded an abundance fitness of -0.578 ± 0.19.
W18R gave an abundance fitness of -0.785 ± 0.07.
With W18S the abundance fitness was -0.864 ± 0.13.
Variant T20S has an abundance fitness of -0.053 ± 0.047.
For T20A, the abundance fitness was 0.021 ± 0.039.
Variant T20E has an abundance fitness of 0.011 ± 0.041.
With T20W the abundance fitness was -0.413 ± 0.061.
With T20D the abundance fitness was -0.206 ± 0.063.
Variant T20F has an abundance fitness of -0.205 ± 0.11.
T20I showed an abundance fitness of -0.11 ± 0.08.
Variant T20N has an abundance fitness of -0.072 ± 0.068.
T20G showed an abundance fitness of -0.225 ± 0.035.
Variant T20M has an abundance fitness of -0.219 ± 0.071.
T20L showed an abundance fitness of -0.198 ± 0.05.
Variant T20P has an abundance fitness of 0.06 ± 0.058.
Work on T20Q yielded an abundance fitness of -0.064 ± 0.052.
In the case of T20H, the abundance fitness is reported as -0.012 ± 0.088.
In the case of T20R, the abundance fitness is reported as -0.05 ± 0.035.
T20Y showed an abundance fitness of -0.276 ± 0.1.
L17D gave an abundance fitness of 0.091 ± 0.064.
Work on L17T yielded an abundance fitness of 0.154 ± 0.06.
Work on L17M yielded an abundance fitness of 0.046 ± 0.059.
Work on L17R yielded an abundance fitness of 0.039 ± 0.038.
Work on L17V yielded an abundance fitness of 0.017 ± 0.043.
With L17F the abundance fitness was -0.295 ± 0.12.
With L17C the abundance fitness was 0.042 ± 0.079.
With L17Y the abundance fitness was -0.097 ± 0.073.
Variant L17I has an abundance fitness of -0.002 ± 0.12.
Variant L17S has an abundance fitness of 0.122 ± 0.051.
In the case of L17P, the abundance fitness is reported as -1.08 ± 0.4.
In the case of L17N, the abundance fitness is reported as 0.053 ± 0.08.
With L17G the abundance fitness was 0.074 ± 0.037.
Work on L17Q yielded an abundance fitness of 0.033 ± 0.064.
L17H gave an abundance fitness of 0.045 ± 0.15.
For L17E, the abundance fitness was 0.093 ± 0.043.
With L17W the abundance fitness was -0.041 ± 0.051.
Work on L27Y yielded an abundance fitness of -0.584 ± 0.15.
In the case of L27N, the abundance fitness is reported as -1.02 ± 0.29.
Variant L27E has an abundance fitness of -0.965 ± 0.12.
For L27S, the abundance fitness was -1 ± 0.12.
With L27D the abundance fitness was -0.648 ± 0.13.
Variant L27C has an abundance fitness of -0.47 ± 0.11.
In the case of L27Q, the abundance fitness is reported as -0.658 ± 0.19.
L27T showed an abundance fitness of -0.628 ± 0.098.
With L27I the abundance fitness was -0.085 ± 0.09.
Work on L27M yielded an abundance fitness of -0.153 ± 0.056.
Variant L27K has an abundance fitness of -0.623 ± 0.12.
With L27W the abundance fitness was -0.891 ± 0.14.
Variant L27P has an abundance fitness of -0.593 ± 0.14.
Variant L27R has an abundance fitness of -0.912 ± 0.092.
In the case of L27F, the abundance fitness is reported as -0.493 ± 0.11.
With V23A the abundance fitness was -0.68 ± 0.077.
V23P gave an abundance fitness of -0.877 ± 0.2.
With V23R the abundance fitness was -1.04 ± 0.13.
Work on V23G yielded an abundance fitness of -0.997 ± 0.09.
V23W showed an abundance fitness of -0.798 ± 0.14.
In the case of V23Q, the abundance fitness is reported as -1.04 ± 0.24.
V23C gave an abundance fitness of -0.328 ± 0.095.
V23I showed an abundance fitness of -0.5 ± 0.13.
In the case of V23S, the abundance fitness is reported as -0.761 ± 0.13.
Variant V23H has an abundance fitness of -0.846 ± 0.31.
V23K showed an abundance fitness of -0.991 ± 0.2.
V23T gave an abundance fitness of -0.167 ± 0.066.
For V23L, the abundance fitness was -0.874 ± 0.14.
V23N gave an abundance fitness of -0.475 ± 0.24.
For V23Y, the abundance fitness was -0.905 ± 0.32.
In the case of V23D, the abundance fitness is reported as -0.781 ± 0.18.
D14V gave an abundance fitness of -0.656 ± 0.094.
In the case of D14N, the abundance fitness is reported as -0.083 ± 0.07.
D14A gave an abundance fitness of -0.716 ± 0.096.
D14P gave an abundance fitness of -0.898 ± 0.17.
With D14T the abundance fitness was -0.417 ± 0.078.
D14G gave an abundance fitness of -0.706 ± 0.073.
D14Y gave an abundance fitness of -0.723 ± 0.16.
Variant D14R has an abundance fitness of -0.783 ± 0.092.
Variant D14M has an abundance fitness of -0.537 ± 0.11.
For D14H, the abundance fitness was -0.146 ± 0.093.
Variant D14F has an abundance fitness of -0.444 ± 0.12.
In the case of D14L, the abundance fitness is reported as -0.771 ± 0.13.
D14K gave an abundance fitness of -0.872 ± 0.19.
For D14C, the abundance fitness was -0.085 ± 0.065.
Variant D14I has an abundance fitness of -0.726 ± 0.2.
Work on D14W yielded an abundance fitness of -0.809 ± 0.15.
D14E gave an abundance fitness of -0.346 ± 0.089.
With W29A the abundance fitness was 0.101 ± 0.042.
Work on W29R yielded an abundance fitness of -0.006 ± 0.032.
Variant W29D has an abundance fitness of 0.21 ± 0.057.
W29H gave an abundance fitness of 0.082 ± 0.085.
Variant W29F has an abundance fitness of -0.098 ± 0.11.
W29T gave an abundance fitness of 0.065 ± 0.055.
Variant W29L has an abundance fitness of -0.168 ± 0.054.
W29V gave an abundance fitness of -0.143 ± 0.045.
Work on W29G yielded an abundance fitness of 0.111 ± 0.03.
With W29S the abundance fitness was 0.11 ± 0.044.
Work on W29C yielded an abundance fitness of 0.017 ± 0.06.
For W29I, the abundance fitness was -0.07 ± 0.083.
With W29K the abundance fitness was 0.048 ± 0.058.
W29E showed an abundance fitness of 0.127 ± 0.045.
For W29P, the abundance fitness was -1.08 ± 0.31.
Work on W29M yielded an abundance fitness of -0.038 ± 0.055.
Work on H22N yielded an abundance fitness of 0.074 ± 0.066.
With H22Y the abundance fitness was -0.672 ± 0.13.
H22I gave an abundance fitness of -0.488 ± 0.13.
Work on H22P yielded an abundance fitness of -1.06 ± 0.18.
In the case of H22S, the abundance fitness is reported as -0.357 ± 0.054.
H22T gave an abundance fitness of -0.324 ± 0.064.
Variant H22F has an abundance fitness of -0.701 ± 0.2.
In the case of H22M, the abundance fitness is reported as -0.033 ± 0.054.
Variant H22L has an abundance fitness of -0.532 ± 0.065.
With H22C the abundance fitness was -0.229 ± 0.068.
H22G gave an abundance fitness of -0.18 ± 0.036.
For H22W, the abundance fitness was -0.55 ± 0.091.
Work on H22V yielded an abundance fitness of -0.198 ± 0.041.
Work on H22A yielded an abundance fitness of -0.286 ± 0.048.
In the case of H22D, the abundance fitness is reported as -0.014 ± 0.057.
Work on H22E yielded an abundance fitness of 0.018 ± 0.047.
Q25F showed an abundance fitness of -0.072 ± 0.08.
For Q25G, the abundance fitness was -0.095 ± 0.034.
Variant Q25Y has an abundance fitness of -0.07 ± 0.073.
Work on Q25R yielded an abundance fitness of -0.003 ± 0.034.
Work on Q25V yielded an abundance fitness of 0.01 ± 0.037.
Q25C showed an abundance fitness of -0.015 ± 0.073.
Work on Q25L yielded an abundance fitness of 0.064 ± 0.042.
Q25H showed an abundance fitness of -0.046 ± 0.074.
Variant Q25K has an abundance fitness of -0.015 ± 0.052.
For Q25E, the abundance fitness was 0.022 ± 0.045.
Work on Q25S yielded an abundance fitness of -0.05 ± 0.046.
Q25P gave an abundance fitness of -1 ± 0.2.
For Q25M, the abundance fitness was 0.022 ± 0.059.
Variant Q25I has an abundance fitness of -0.001 ± 0.082.
Q25A showed an abundance fitness of 0.03 ± 0.037.
In the case of Q25D, the abundance fitness is reported as -0.061 ± 0.066.
Variant Q25N has an abundance fitness of -0.214 ± 0.076.
For S19H, the abundance fitness was -0.18 ± 0.1.
S19V gave an abundance fitness of -0.716 ± 0.071.
S19I gave an abundance fitness of -0.697 ± 0.17.
For S19E, the abundance fitness was -0.129 ± 0.049.
S19W gave an abundance fitness of -0.683 ± 0.088.
With S19K the abundance fitness was -0.065 ± 0.052.
Work on S19P yielded an abundance fitness of -0.994 ± 0.17.
For S19A, the abundance fitness was -0.223 ± 0.047.
For S19D, the abundance fitness was -0.014 ± 0.061.
With S19G the abundance fitness was -0.133 ± 0.033.
S19Y gave an abundance fitness of -0.798 ± 0.22.
In the case of S19L, the abundance fitness is reported as -0.565 ± 0.069.
In the case of S19Q, the abundance fitness is reported as -0.235 ± 0.07.
For S19R, the abundance fitness was -0.145 ± 0.036.
S19T showed an abundance fitness of -0.073 ± 0.055.
Work on S19N yielded an abundance fitness of -0.008 ± 0.064.
In the case of S19F, the abundance fitness is reported as -0.719 ± 0.23.
In the case of A13K, the abundance fitness is reported as -0.05 ± 0.062.
For A13L, the abundance fitness was -0.046 ± 0.045.
With A13N the abundance fitness was 0.06 ± 0.088.
A13W gave an abundance fitness of -0.122 ± 0.051.
A13D gave an abundance fitness of 0.235 ± 0.063.
In the case of A13Y, the abundance fitness is reported as -0.075 ± 0.087.
Work on A13T yielded an abundance fitness of 0.108 ± 0.065.
A13G gave an abundance fitness of 0.061 ± 0.037.
In the case of A13P, the abundance fitness is reported as 0.116 ± 0.062.
With A13C the abundance fitness was 0.009 ± 0.067.
With A13V the abundance fitness was -0.01 ± 0.044.
Variant A13F has an abundance fitness of -0.074 ± 0.072.
Variant A13Q has an abundance fitness of 0.11 ± 0.06.
For A13H, the abundance fitness was 0.045 ± 0.12.
Work on A13I yielded an abundance fitness of 0.056 ± 0.068.
In the case of A13R, the abundance fitness is reported as 0.043 ± 0.035.
In the case of A13M, the abundance fitness is reported as -0.033 ± 0.074.
